The source of these data is PMC4870127.

Holding throughout (assay): FXa generation assay
Test [1] has as its target Factor VIIIa (WT), thrombin-activated WT B-domainless FVIII.
Test [2] has as its target Factor VIIIa D666S/S1787D swap variant (thrombin-activated B-domainless FVIII).
Test [3] concerns the target Factor VIIIa T657Y/Y1792T swap variant (thrombin-activated B-domainless FVIII).

Consider “FIXaβ (from UniProt P00740 47-191; P00740 227-461) (enzyme)”, for which the Kd in test [1] is 0.92 nM; in test [2], 1.73 nM; in test [3] it was 1.45 nM.

What is called Kd is the free concentration of one partner at which half of the binding sites on the other are occupied at equilibrium, for simple one-to-one binding. Low values mean higher affinity, high ones lower affinity.
